The test system of this data set is MS2 coat protein. Kind of data set: apparent KD of MS2 coat protein; designed switch direction (-1 OFF switch, 1 ON switch): -1; higher = weaker reporter binding. The method, boiled down: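 Designed RNA switches with common flanks were made on Illumina chips by stalled E. coli RNA polymerase. Titration with SNAP-549-labelled MS2 coat protein doubled from 0.7 or 1.5 nM up to 3 µM. Apparent KD is each design's median over clusters after curve-fitting normalised fluorescence.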

[1] abbreviates: input ligand: microRNA oligo, concentration not stated.
Setting [2] is: Eterna round: R95, input ligand: microRNA oligo, concentration not stated.
Where [3] appears, read: Eterna round: R95, input ligand: FMN 200 uM.
The mark [4] stands for this setting: Eterna round: R95, input ligand: none.

Take “UUAAUUAGCAGGCAAGAUCAUUACAUGAGGAUCACCCAUGUCGAGGAUAUCAGCUCGAUUAGAGCUGAGAAGGCGACAGCCUGC [ExNG3/13-A1] (Eterna round: R96, puzzle: Exclusion NG 3)”: the “apparent KD of MS2 coat protein” value amounted to 1540 nM (input ligand: FMN 200 uM), 443 nM under setting [1] and 382 nM (input ligand: none).

“UUACAGCAAGGAUAUACAUGAGGAUCACCCAUGUAUGCAUGUUCGAGAGAGGCCUACGGUAGAAGGUGCAUGUU [EX3 C.11] (Eterna round: R97, puzzle: Exclusion 3)”: the “apparent KD of MS2 coat protein” value came to 25.2 nM (input ligand: FMN 200 uM) and 39.8 nM (input ligand: none).

Regarding “UUACUCGCAGGAUAUACGGGACAUACACAUCAAACUACACGACAUGAGGAUCACCCAUGUAGAAGGGCGUUACA [Blue and Green] (Eterna round: R97, puzzle: Exclusion 2)”, the “apparent KD of MS2 coat protein” value is, setting by setting: (input ligand: FMN 200 uM) 73.5 nM; (input ligand: none) 51.2 nM.

Turning to “UUACUGCAAGGAUAUACAUGAGGAUCACCCAUGUUAAUGACACGGUGCAGCUUCGACAGUAGAAGGUGCGUGGG [Eternabot (L1) Solution 71] (Eterna round: R97, puzzle: Exclusion 3)”, the “apparent KD of MS2 coat protein” value runs as follows: (input ligand: FMN 200 uM) 43.2 nM; (input ligand: none) 34.7 nM.

With “UUAGAAAGGUUAGGAUAUUAAUUAUUGUAUAGUAUGAUCUACAUGAGGAUCACCCAUGUUAAAUAUAAGAAGGAACGUUAGAUU [JR_ExcNG2_Sub093] (Eterna round: R96, puzzle: Exclusion NG 2)”, the “apparent KD of MS2 coat protein” value under setting [1] stood at 39.9 nM.

Turning to “UUAGAAAUGGUAGGAUAUUAGUAGUGUUUUACUCUGAUCCACAUGAGGAUCACCCAUGUGAGUAGUGAGAAGGAUCAUUUUAUG [base off of JR design] (Eterna round: R96, puzzle: Exclusion NG 2)”, the “apparent KD of MS2 coat protein” value runs as follows: (input ligand: FMN 200 uM) 21.1 nM; under setting [1], 17.8 nM; (input ligand: none) 19.3 nM.

“UUAUAAAGAGUGAGGAUAUGCUGGUCCUUGGAUCAGCAGAAGGCACAUGAGGAUCACCCAUGUAAAAUAAUAUU [Mat - Exclusion 4 - JL Mod - D40] (puzzle: Brourd's mod of Exclusion 4)”: the “apparent KD of MS2 coat protein” value under setting [2] was determined as 25.4 nM.

As to “UUAUACAAGCAAAGAUCCCACAUGAGGAUCACCCAUGUGCUCGUCUUAUAAGGAACUGUGACGAAAGUCACGGUUCC [Mat - Sensor, turn-off var - Eli Mod - D100] (Eterna round: R97, puzzle: Sensor, turn-off variant 1)”, the “apparent KD of MS2 coat protein” value was 36.2 nM (input ligand: FMN 200 uM) and 37.2 nM (input ligand: none).

As for “UUAUACGGUGAGGAUAUCUCCACUAAAGUGUGAAGAGAAGGCGCUACAUGAGGAUCACCCAUGUCUAUGGGCAG [Ex-6 Malc#16] (puzzle: Exclusion 6)”, the “apparent KD of MS2 coat protein” value by setting is: under setting [3], 905 nM; under setting [2], 262 nM; under setting [4], 320 nM.

Take “UUAUACGUUGAGGAUAUGUUAUUUAGUAUAGUUACAGAAGGCGAUACAUGAGGAUCACCCAUGUUUAUGGGCAU [Ex-6 Malc#1] (puzzle: Exclusion 6)”: the “apparent KD of MS2 coat protein” value under setting [2] worked out at 196 nM.

“UUAUAGUUAGAGGAUAUAUUAAGGUAUGCUUUGAUAGAAGGCUAGACAUGAGGAUCACCCAUGUAUAUUGGGAU [JR_Ex6_Sub075] (Eterna round: R97, puzzle: Exclusion 6)”: the “apparent KD of MS2 coat protein” value amounted to 425 nM (input ligand: FMN 200 uM) and 220 nM (input ligand: none).

Regarding “UUAUAUAAUGUGAGGAUAUGCUGGUCCAUAGAUCAGCAGAAGGCACAUGAGGAUCACCCAUGUAGUAAAUUUUA [Mat - Exclusion 4 - JL Mod - D12] (puzzle: Brourd's mod of Exclusion 4)”, the “apparent KD of MS2 coat protein” value runs as follows: under setting [3], 24.2 nM; under setting [2], 14.5 nM; under setting [4], 14.8 nM.

On to “UUAUAUAGUGUGAGGAUAUGCUGGUCCUUGGAUCAGCAGAAGGCACAUGAGGAUCACCCAUGUAGUUAAAUAUA [Mat - Exclusion 4 - JL Mod - D18] (puzzle: Brourd's mod of Exclusion 4)”, for which the “apparent KD of MS2 coat protein” value runs as follows: under setting [3], 252 nM; under setting [2], 31.1 nM; under setting [4], 39.5 nM.

For “UUAUAUAGUGUGAGGAUAUGCUGGUCCUUGGAUCAGCAGAAGGCACAUGAGGAUCACCCAUGUAGUUAAAUUUA [Mat - Exclusion 4 - JL Mod - D17] (puzzle: Brourd's mod of Exclusion 4)”, the “apparent KD of MS2 coat protein” value under setting [2] amounted to 27.3 nM.

For “UUAUAUAGUGUGAGGAUAUGCUGGUCCUUGGAUCAGCAGAAGGCACAUGAGGAUCACCCAUGUAGUUUAUUUUU [Mat - Exclusion 4 - JL Mod - D4] (puzzle: Brourd's mod of Exclusion 4)”, the “apparent KD of MS2 coat protein” value under setting [2] was 25.9 nM.

As for “UUAUCAUGCUUUAGAUCCUACAUGAGGAUCACCCAUGUGCUCGUCUUGUAUCGUUCUGUGUCGUAAGUCUCUGUUCG [mod Jandersonlee designer] (Eterna round: R97, puzzle: Sensor, turn-off variant 1)”, the “apparent KD of MS2 coat protein” value (input ligand: FMN 200 uM) amounted to 924 nM and the “apparent KD of MS2 coat protein” value (input ligand: none) is 1390 nM.

For the sequence “UUAUGAGAGCAGGAUAUCUUAUAAGUGUAUUAAAGAGAAGGGCUCACAUGAGGAUCACCCAUGUGGUCCUAGAU [LRO-Excl6-17-mod of 4.86 by jal] (Eterna round: R97, puzzle: Exclusion 6)”, the “apparent KD of MS2 coat protein” value came to 106 nM (input ligand: FMN 200 uM) and 33.3 nM (input ligand: none).

Consider “UUAUGAGAGCAGGAUAUCUUAUUUUUUUUUUGUGGAGAAGGGCUCACAUGAGGAUCACCCAUGUGGUCCUAGAU [LRO-Excl6-25-mod of 4.86 by jal] (Eterna round: R97, puzzle: Exclusion 6)”, for which the “apparent KD of MS2 coat protein” value is, setting by setting: (input ligand: FMN 200 uM) 47.4 nM; (input ligand: none) 32.9 nM.

“UUAUUAAGUGUGAGGAUAUGCUGGUCCUUGGAUCAGCAGAAGGCACAUGAGGAUCACCCAUGUACAAUAUUUUA [Mat - Exclusion 4 - JL Mod - D29] (puzzle: Brourd's mod of Exclusion 4)”: the “apparent KD of MS2 coat protein” value under setting [2] stood at 35.8 nM.

As to “UUAUUACAAGCAAGAUCCUACAUGAGGAUCACCCAUGUGCUCGUCUUGUAAGGUACAGUGACGAAAGUCACAGUACC [Sensor 3, v1 - 000] (puzzle: Sensor v3, turn-off variant 1)”, the “apparent KD of MS2 coat protein” value reads like this: under setting [3], 24.7 nM; under setting [2], 302 nM; under setting [4], 24.9 nM.

On to “UUAUUAUAUGAAGGAUAUACUUAACAUGAGGAUCACCCAUGUGGUGUUGUGAGUGAGUGAGUUUAGUAGAAGGUCAAUGAUUUU [JMF's solution 72] (Eterna round: R96, puzzle: Exclusion NG 2)”, for which the “apparent KD of MS2 coat protein” value reads like this: (input ligand: FMN 200 uM) 1490 nM; under setting [1], 186 nM; (input ligand: none) 428 nM.

Turning to “UUAUUAUAUGUAGGAUAUGCAUAUUGUUGUUAUGCAGAAGGACAUGAGGAUCACCCAUGUAUAUUAUUGUUGUAUAUUAUAUAU [Title] (Eterna round: R96, puzzle: Exclusion NG 1)”, the “apparent KD of MS2 coat protein” value (input ligand: FMN 200 uM) was found to be 37.4 nM, the “apparent KD of MS2 coat protein” value under setting [1] stood at 17.5 nM and the “apparent KD of MS2 coat protein” value (input ligand: none) turned out to be 24.1 nM.

Take “UUAUUGUGUGUAGGAUAUGCGUGUUAUUAUUAUGCAGAAGGACAUGAGGAUCACCCAUGUGUAUUAUUAUUAUAUAUUAUAUAU [Title] (Eterna round: R96, puzzle: Exclusion NG 1)”: the “apparent KD of MS2 coat protein” value was 45.3 nM (input ligand: FMN 200 uM), 27.2 nM under setting [1] and 27.7 nM (input ligand: none).

With “UUCACAUGGACAUGAGAUCACAUGAGGAUCACCCAUGUGAAUAACAAGCUUUUUGUUCGUCUUAUGUCCAAUAAUAU [Stov1/14-D2] (Eterna round: R97, puzzle: Sensor, turn-off variant 1)”, the “apparent KD of MS2 coat protein” value by setting is: (input ligand: FMN 200 uM) 13.7 nM; (input ligand: none) 10.5 nM.

“UUCAUGUGAGGAUAUGUGAUCUGCUUUCUGUUUAGAUGAUCACAGAAGGCACAUGAGGAUCACCCAUGUAGAUC [Ex4 - 3 - 30] (puzzle: Exclusion 4)”: the “apparent KD of MS2 coat protein” value under setting [2] came to 60.5 nM.

As to “UUCCCACAUGAGGAUCACCCAUGUGAGGAUAUGGAGCGCGACCGCGCGGUCGCGUACACCAGAAGGCGCAUGAU [1st #80] (Eterna round: R97, puzzle: Exclusion 1)”, the “apparent KD of MS2 coat protein” value reads like this: (input ligand: FMN 200 uM) 21 nM; (input ligand: none) 16.2 nM.

“UUGAACAUAGGAUAUAGUUGUUUGUACAUGAGGAUCACCCAUGUUAGGGAUGUUUUGUUUCUAGAAGGAUGUUGAU [JR_E5_Sub001] (puzzle: Exclusion 5)”: the “apparent KD of MS2 coat protein” value under setting [2] worked out at 128 nM.

“UUGAAGUCAUCAGGAUAUAGUUUUAAUGUCAUGCUUAAGUUCUUACAUGAGGAUCACCCAUGUCGCUAGAAGGGAUUAUAGAUU [JR_ExcNG2_Sub078] (Eterna round: R96, puzzle: Exclusion NG 2)”: the “apparent KD of MS2 coat protein” value runs as follows: (input ligand: FMN 200 uM) 66.8 nM; under setting [1], 42.6 nM; (input ligand: none) 67.7 nM.

Take “UUGAAUUAACAGGAUAUGGGAGUCGAUAGACACCCAGAAGGGUUAACAUGAGGAUCACCCAUGUGUCCUAUCAA [Mod of Eli 23 - Jieux - Exclusion 6] (Eterna round: R97, puzzle: Exclusion 6)”: the “apparent KD of MS2 coat protein” value runs as follows: (input ligand: FMN 200 uM) 94.8 nM; (input ligand: none) 36.5 nM.

As for “UUGACGGCAGGAUAUACAUGAGGAUCACCCAUGUAAAUUUUUCGUUUAACUUGAAUGUGUAGAAGGGCCCAACC [Ex3 #78] (Eterna round: R97, puzzle: Exclusion 3)”, the “apparent KD of MS2 coat protein” value reads like this: (input ligand: FMN 200 uM) 16.6 nM; (input ligand: none) 17.8 nM.

Take “UUGGAGAGAGGAUAUCCCUAGUUUAACAUGAGGAUCACCCAUGUGCGCGUCAAGUCGAAAGGAGAAGGUUCGGCGA [Eternabot (L1) Solution 5] (Eterna round: R97, puzzle: Exclusion 5)”: the “apparent KD of MS2 coat protein” value reads like this: (input ligand: FMN 200 uM) 32.7 nM; (input ligand: none) 26.8 nM.

Source of the values: the supplement of paper PMC9170038.
